Test results published in patent CN110760483A (UNIV YANGZHOU, dated 2020).

Experiments:
[1] = molecular target: T1, rHis-BoTNF-α (pET-30a(+)-BoTNF-α, E. coli BL21(DE3)) (牛 (bovine), UniProt Q06599 78-234); experiment: Western blot with HRP-3C1 1:1000
T1 construct: Own construct; also called rHis-BoTNF-α纯化蛋白; not shown: N-terminal His tag and vector residues of pET-30a(+) up to the BamHI site
T1 sequence (looked up): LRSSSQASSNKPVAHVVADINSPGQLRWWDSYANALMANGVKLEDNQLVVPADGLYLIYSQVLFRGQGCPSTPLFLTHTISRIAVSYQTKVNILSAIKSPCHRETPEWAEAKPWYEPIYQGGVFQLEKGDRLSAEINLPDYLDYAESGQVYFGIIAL

[2] = molecular target: T2, rBoIL-2 (Kingfisher-Biotech公司, rp0026B-005) (UniProt P05016 21-155); experiment: indirect ELISA, coated protein, 3C1 hybridoma supernatant
T2 construct: Commercial protein
T2 sequence (looked up): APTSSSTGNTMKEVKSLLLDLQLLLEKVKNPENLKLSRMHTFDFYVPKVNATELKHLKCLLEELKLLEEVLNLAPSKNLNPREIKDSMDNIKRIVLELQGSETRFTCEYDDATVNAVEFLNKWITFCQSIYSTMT

[3] = molecular target: T3, rBoIFN-γ (美国R&D公司, 2300-BG-02) (UniProt P07353 24-166); experiment: as above
T3 construct: Commercial protein; species read from the label Bo
T3 sequence (looked up): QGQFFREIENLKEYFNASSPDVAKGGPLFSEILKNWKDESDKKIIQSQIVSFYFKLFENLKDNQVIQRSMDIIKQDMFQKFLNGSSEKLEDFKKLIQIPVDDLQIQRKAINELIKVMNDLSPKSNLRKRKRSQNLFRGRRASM

[4] = molecular target: T4, rPoTNF-α (美国R&D公司, 690-PT-025) (UniProt P23563 77-232); experiment: as above
T4 construct: Commercial protein
T4 sequence (P23563 77-232 limits assumed): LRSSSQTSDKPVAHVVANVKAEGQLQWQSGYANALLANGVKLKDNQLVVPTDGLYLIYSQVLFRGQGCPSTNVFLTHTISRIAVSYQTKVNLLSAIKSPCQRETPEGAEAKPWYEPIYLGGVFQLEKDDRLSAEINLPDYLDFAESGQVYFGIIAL

[5] = molecular target: T5, rhuTNF-α (PeproTech, 300-01A-50) (UniProt P01375 77-233); experiment: as above
T5 construct: Commercial protein
T5 sequence (P01375 77-233 limits assumed): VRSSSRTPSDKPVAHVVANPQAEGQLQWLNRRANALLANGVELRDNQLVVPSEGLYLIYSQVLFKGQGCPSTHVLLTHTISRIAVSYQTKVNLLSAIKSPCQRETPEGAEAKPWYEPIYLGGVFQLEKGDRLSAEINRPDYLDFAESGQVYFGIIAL

[6] = molecular target: T6, 商品化rBoTNF-α (美国R&D公司, 2279-BT-025) (牛 (bovine), UniProt Q06599 78-234); experiment: indirect ELISA, protein coated at 0.5μg/mL, 3C1 hybridoma supernatant
T6 construct: Commercial protein
T6 sequence (looked up): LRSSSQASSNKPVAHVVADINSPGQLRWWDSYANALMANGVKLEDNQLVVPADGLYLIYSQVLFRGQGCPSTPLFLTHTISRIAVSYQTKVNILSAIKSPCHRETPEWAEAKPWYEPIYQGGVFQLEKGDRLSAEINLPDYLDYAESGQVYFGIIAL

[7] = molecular target: T7, 天然羊TNF-α (羊外周血单核细胞) (羊 (sheep)) (UniProt P23383); experiment: intracellular flow cytometry, PMA/ionomycin-stimulated sheep PBMC, FITC-3C1 0.5μg/mL
T7 sequence (looked up): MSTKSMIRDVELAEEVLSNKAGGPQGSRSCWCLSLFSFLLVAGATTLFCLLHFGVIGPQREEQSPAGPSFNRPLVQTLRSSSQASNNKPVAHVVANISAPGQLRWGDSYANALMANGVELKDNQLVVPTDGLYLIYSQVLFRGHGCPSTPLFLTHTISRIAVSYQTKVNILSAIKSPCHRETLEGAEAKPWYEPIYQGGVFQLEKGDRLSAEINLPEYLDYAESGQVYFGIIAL

[8] = molecular target: T8, 天然牛TNF-α (牛外周血单核细胞) (牛 (bovine)) (UniProt Q06599); experiment: intracellular flow cytometry, PMA/ionomycin-stimulated bovine PBMC, FITC-3C1 0.5μg/mL
T8 sequence (looked up): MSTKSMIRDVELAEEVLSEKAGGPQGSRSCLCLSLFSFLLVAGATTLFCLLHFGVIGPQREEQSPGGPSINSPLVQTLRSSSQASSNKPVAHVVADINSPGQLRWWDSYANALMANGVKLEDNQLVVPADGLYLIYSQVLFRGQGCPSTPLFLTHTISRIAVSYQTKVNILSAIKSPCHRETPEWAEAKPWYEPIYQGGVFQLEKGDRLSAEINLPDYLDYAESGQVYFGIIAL

[9] = molecular target: T7, 天然羊TNF-α (羊外周血单核细胞) (羊 (sheep)); experiment: intracellular flow cytometry, unstimulated sheep PBMC (control well), FITC-3C1 0.5μg/mL
[10] = molecular target: T8, 天然牛TNF-α (牛外周血单核细胞) (牛 (bovine)); experiment: intracellular flow cytometry, unstimulated bovine PBMC (control well), FITC-3C1 0.5μg/mL
[11] = molecular target: T9, rGST-BoTNF-α (pGEX-6p-1-BoTNF-α, E. coli BL21) (牛 (bovine)) (UniProt Q06599); experiment: indirect ELISA, rGST-BoTNF-α coated at 0.5μg/mL, serially diluted 3C1 ascites, cut-off P/N≥2.1
T9 sequence (looked up): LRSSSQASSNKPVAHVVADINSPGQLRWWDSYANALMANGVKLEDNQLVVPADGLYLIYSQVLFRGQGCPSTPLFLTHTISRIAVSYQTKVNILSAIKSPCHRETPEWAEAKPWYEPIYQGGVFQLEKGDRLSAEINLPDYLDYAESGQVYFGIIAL

B1: 单克隆抗体3C1 (具牛、羊交叉反应的抗TNF-α单克隆抗体, 杂交瘤 CCTCC NO:C2019129) (antibody, V domains shown)
VH: QVQLKQSGPGLVQPSQSLSITCTVSGFSLTNFSVHWVRQPPGKGLEWLGVMWSGGSTDYNAAFISRLSIIKDNSKSQVFFKMNGLQADDTAIYYCARSGPYYYSLDYWGQGTSVTVSS
VL: DIQMTQSPASLSASVGETVTITCRASENIYIYLAWYQQKQGKSPQLLVYNAKTLAEGVPSRFSGSGSGTQFSLNINSLQPEDFGSYYCQHHYGTPWTFGGGTKLEIK
notes: Used as ascites, hybridoma supernatant, HRP-labelled (HRP-3C1) or FITC-labelled (FITC-3C1) antibody, depending on the assay; also called mAb 3C1; MAb 3C1
**Q.** Which results are given for B1?
**A.** binding result [1]: binds; binding result [2]: no binding (tested: 0.5μg/mL (coating)); binding result [3]: no binding (tested: 0.5μg/mL (coating)); binding result [4]: no binding (tested: 0.5μg/mL (coating)); binding result [5]: no binding (tested: 0.5μg/mL (coating)); binding result [6]: binds; 分泌羊TNF-α细胞比例 (percent stained cells) [7]: 13.4%; 分泌牛TNF-α细胞比例 (percent stained cells) [8]: 18.4%; 分泌羊TNF-α细胞比例 (percent stained cells) [9]: 0.027%; 分泌牛TNF-α细胞比例 (percent stained cells) [10]: 0.051%; 效价 (ascites titre) (dilution (1:x)) [11]: 1.31e+07
